Results: US20250195629A1, “SITE-SPECIFIC BRAIN THERAPEUTICS” (William Marsh Rice University, priority 2023, published 2025)

Key:
Format in all cases: in vivo, mouse
[1] = AADC immunostaining, AADC-IKVAV retention and spatial targeting after FUS-BBBO; details: for local AADC levels (AADC+ pixels) in FUS-targeted region vs FUS alone control group: 250 mg/kg i.v., one FUS site left CPu, 2 days
Experimental: c-Fos […] injection of recombinant protein AADC-IKVAV (SEQ ID NO: 23) (20 mg/mL, 250 mg/kg) or equivalent volume of PBS buffer (n=5 mice for FUS alone+L-DOPA group). After 48 h, the mice were given a single dose of L-DOPA (0.1 mg/mL, 2 mg/kg, i.p.; Spectrum Chemical) 10 min after injection of carbidopa (1 mg/mL, 25 mg/kg, i.p.; Sigma-Aldrich), both of which were dissolved in sterile saline containing 2.5 and 0.125 mg/mL ascorbic acid. […] After 2 hours, the mice were euthanized by transcardial perfusion, and their brains were extracted and sliced into 50 μm coronal sections following 24-48 hours of fixation.
Immunostaining of AADC was performed as follows: (1) incubate the brain sections in 1× antigen retrieval solution (catalog number: 00-4955-58; Invitrogen) overnight in a 60° C. water bath; (2) block sections in 5% normal goat serum (SouthernBiotech) and 0.3% Triton-X solution in PBS for 1 h at room temperature; (3) incubate with primary rabbit anti-AADC antibody (1:500, 10166-1-AP, Proteintech) for staining AADC-IKVAV (SEQ ID NO: 23) in blocking buffer for 2 h at room temperature; (4) after washing three times in PBS (15 min each, the same as below), incubate with secondary goat anti-rabbit antibody conjugated to Alexa Fluor 647 (1:750, A-21245, ThermoFisher) in blocking buffer for 2 h at room temperature; (5) after washing three times, mount sections onto glass slides using the mounting media (Vector Laboratories) with DAPI and air-dry overnight in dark before imaging.
To analyze AADC-IKVAV (SEQ ID NO: 23) retention, as depicted in FIG. 7 and FIG. 11, stained coronal sections within the striatum were captured using a ×4 objective in DAPI (nuclei, not shown) and far-red (AADC) channels. Among these sections, the one displaying the most intense AADC fluorescence was chosen as the representative for each mouse. Subsequently, the selected sections were further examined at a higher magnification (×40 objective) for quantitative comparison. […] This area was imaged using a ×40 objective. Additionally, corresponding contralateral areas in the right striatum were also imaged.
To quantify the AADC-IKVAV (SEQ ID NO: 23) retention in the FUS targeted region, as shown in FIG. 7 and FIG. 11, the histological images were analyzed using ImageJ (version 1.53t). Specifically, the average pixel intensity of the AADC-IKVAV (SEQ ID NO: 23) channel image captured on the contralateral side of each representative section was calculated to establish the background for that section.
Immediately afterwards, the mice were sacrificed for immunohistochemical analysis of AADC-IKVAV (SEQ ID NO: 23) retention as already mentioned. The section displaying the strongest AADC fluorescence was selected as the representative for each mouse, and its adjacent section was stained separately to identify c-Fos positive cells. […]

GFAP+ astrocytes = assay: Safety analysis, GFAP staining for astrocytic activation; details: RAID treatment, FUS+AADC-IKVAV
Source text: Additionally, the brain sections stained for GFAP were imaged using a 4× objective in DAPI (nuclei) and far-red (GFAP) channels. Three square areas were then selected in both the left and right striatum respectively, each with 3×3 binning, for imaging with a 40× objective to quantify GFAP+ cells.
In FIG. 7, we applied the following brightness (white) thresholds for the corresponding channels: 6045 (DAPI, nuclei, not shown), 15,000 (Cy3, D1R), 16,000 (green, D2R), and 6045 (far-red, c-Fos), with a gamma value of 1. In FIG. 11, we applied a Brightness (White) threshold of 6045 for both DAPI (nuclei, not shown) and far-red (c-Fos) channels, with a Gamma value of 1. The images were then overlayed, and the c-Fos+ cells were manually counted. Similarly, the GFAP+ cells were manually counted, as shown in FIG. 15c and FIG. 17, by applying a Brightness (White) threshold of 5686 and a Gamma value of 1 for both the DAPI (nuclei) and far-red (GFAP, purple) channels.
Adjacent sections were stained separately with an anti-GFAP antibody to examine astrocytic activation. […]

brain tissue = assay: Safety analysis, hematoxylin staining of brain sections; details: RAID approach, FUS+AADC-IKVAV+L-DOPA, behavior study
Experimental: Additionally, the brain sections stained for GFAP were imaged using a 4× objective in DAPI (nuclei) and far-red (GFAP) channels. Three square areas were then selected in both the left and right striatum respectively, each with 3×3 binning, for imaging with a 40× objective to quantify GFAP+ cells. Safety analysis—To investigate potential lesions resulting from the use of FUS-BBBO in the RAID protocol, hematoxylin staining was performed (n=11 mice for FUS alone+L-DOPA group and n=14 mice for FUS+AADC-IKVAV (SEQ ID NO: 23)+L-DOPA group) on the adjacent sections of each representative section used for c-Fos staining, which was associated with behavior analysis as shown in FIG. 11. Hematoxylin staining was conducted according to the following steps: […] (5) This was followed by a 3-minute wash in H2O; (6) A 20-second soak in Bluing Reagent (H&E Staining Kit, Abcam ab245880) was carried out; (7) Another 3-minute wash in H2O followed; […]

[2] = behavior study, FUS+AADC-IKVAV+L-DOPA, two FUS sites

B1: AADC-IKVAV: aromatic-L-amino-acid decarboxylase (AADC) protein fused with short peptide IKVAV (SEQ ID NO: 23); CDS SEQ ID NO: 21 (protein)
chain: MRGSHHHHHHGMASMTGGQQMGRDLYDDDDKDPMNASEFRRRGKEMVDYMANYMEGIEGRQVYPDVEPGYLRPLIPAAAPQEPDTFEDIINDVEKIIMPGVTHWHSPYFFAYFPTASSYPAMLADMLCGAIGCIGFSWAASPACTELETVMMDWLGKMLELPKAFLNEKAGEGGGVIQGSASEATLVALLAARTKVIHRLQAASPELTQAAIMEKLVAYSSDQAHSSVERAGLIGGVKLKAIPSDGNFAMRASALQEALERDKAAGLIPFFMVATLGTTTCCSFDNLLEVGPICNKEDIWLHVDAAYAGSAFICPEFRHLLNGVEFADSFNFNPHKWLLVNFDCSAMWVKKRTDLTGAFRLDPTYLKHSHQDSGLITDYRHWQIPLGRRFRSLKMWFVFRMYGVKGLQAYIRKHVQLSHEFESLVRQDPRFEICVEVILGLVCFRLKGSNKVNEALLQRINSAKKIHLVPCHLRDKFVLRFAICSRTVESAHVQRAWEHIKELAADVLRAEREGGSGSSGGSGGSGGSGIKVAV
modifications: misc_feature 1..1602 Synthetic: AADC-IKVAV
local AADC levels (AADC+ pixels) in FUS-targeted region vs FUS alone control group ([1]; with subsequent L-DOPA 2 mg/kg i.p.): 38.5 (±6.1) fold
local AADC levels (AADC+ pixels) in FUS-targeted region vs FUS alone control group ([1]; without L-DOPA): 41.8 (±8.9) fold
mice with detectable retention within the CPu ([1]; 11 mice receiving AADC-IKVAV): 73%
levels of local AADC (AADC+ pixels, left CPu) vs FUS alone group [1, 2]: 13.3 (±2.8) fold
levels of local AADC (AADC+ pixels, left CPu) vs untreated group [1, 2]: 93.3(±19.5) fold
presence of delivered enzyme in the FUS-targeted area by immunostaining ([1]; behavior study, two FUS sites, 2 days after delivery): present in the FUS-targeted area in all mice
mice with efficient retention within 100 μm of the CPu ([1]; remaining mice of 11): 27%
numbers of GFAP+ astrocytes in targeted area vs contralateral site (GFAP+ astrocytes): did not affect
tissue damage or bleeding by hematoxylin staining (brain tissue): didn't cause observable tissue damage or bleeding
